Laboratory results: article PMC7055916

Molecular target: T. brucei PNUTS with PTP tag, bloodstream form (T. brucei)
Assay: co-sedimentation; extracts of bloodstream form T. brucei expressing PNUTS-PTP and JBP3-HA or Wdr82-HA on 5-50% sucrose gradients, 38000 rpm 18 hours, fractions analysed by western blot

T. brucei JBP3 with 3x HA tag, bloodstream form (natural protein)
stoichiometry N: 1

T. brucei Wdr82 with 3x HA tag, bloodstream form (natural protein)
stoichiometry N: 1
